In patent US20170209558A1:

Assays:
[1] = target: Basigin (residues 22-205) (UniProt P35613); assay: SPR, RH5ΔNL (8 to 0.0625 µM) injected over immobilized basigin, 1:1 binding model; RH5ΔNL fragment (residues 140-526 lacking 248-296)
[2] = target: Basigin (residues 22-205) (UniProt P35613); assay: not stated; given for comparison with the SPR value of RH5ΔNL; full-length RH5 (FLRH5)

| Substance | Kd [1] [nM] | Kd [2] [nM] |
| --- | --- | --- |
| RH5ΔNL (PfRH5 fragment, 7G8 strain, residues 140-526 lacking residues 248-296, C-terminal hexa-histidine tag) (from UniProt Q8IFM5 140-526) (ligand) | 1300 | – |
| full-length PfRH5 (7G8 strain), recombinant, C-terminal hexa-histidine tag (from UniProt Q8IFM5 24-526) (ligand) | – | 1100 |
